Data as given in the supplement of paper PMC9170038.

System: MS2 coat protein
Experiment: apparent KD of MS2 coat protein; designed switch direction (-1 OFF switch, 1 ON switch): -1; higher = weaker reporter binding
Method in brief: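 Transcription of designed RNA switches on Illumina chips was done by stalled E. coli RNA polymerase. SNAP-549-labelled MS2 coat protein was then titrated in doubling steps from 0.7 or 1.5 nM to 3 µM, with steps of 0.8–1.5 h at the lowest and 10–20 min at the highest concentration. The per-design median over clusters of curve-fitted normalised fluorescence is reported as apparent KD.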

[1] = input ligand: microRNA oligo, concentration not stated
[2] = Eterna round: R95, input ligand: FMN 200 uM
[3] = Eterna round: R95, input ligand: microRNA oligo, concentration not stated
[4] = Eterna round: R95, input ligand: none

Sequence	apparent KD of MS2 coat protein (input ligand: FMN 200 uM) [nM]	apparent KD of MS2 coat protein (input ligand: none) [nM]	apparent KD of MS2 coat protein [1] [nM]	apparent KD of MS2 coat protein [2] [nM]	apparent KD of MS2 coat protein [3] [nM]	apparent KD of MS2 coat protein [4] [nM]
GCAAGCUUAAUCUGUAUGAACAUGAGGAUCACCCAUGUAUAAGGGAAUUCUUUUGGGUUUUUUAUUGCUCGUCUUAU [JR_STOV1_Sub024] (Eterna round: R97, puzzle: Sensor, turn-off variant 1)	260	329				
UACAUGAGGAUCACCCAUGUUUUGUCGUGUAUGGUAUUUAUCUAGGAUAUCAAUUUAGUUAUGUAUGAGAAGGAGAAUAUUAAU [JMF's solution 78] (Eterna round: R96, puzzle: Exclusion NG 3)	43.7	46.4	33.9			
CAGUACUGCAGGCUUUGGGACAUGAGGAUCACCCAUGUUCGUCUUAUUGAUCUAGGUACGCUGACGUACCUAGAUCU [JL-sv1-2.14 Brourd mod] (puzzle: Sensor v3, turn-off variant 1)				18.8	20	17.6
UCGUGUAUAGAGGAUAUAUUAUUUUUUAAAACAAUAGAAGGCUAAACAUGAGGAUCACCCAUGUAUUUGGUUUU [JR_Ex6_Sub053] (Eterna round: R97, puzzle: Exclusion 6)	82.1	19.6				
CUGGUCCGAGGAUAUAUUAUGUGAAACAUGAGGAUCACCCAUGUAAUAUGAUGGAUGUAAAUAGAAGGCGGGCUAG [Mat - Exclusion 5 - JL mod - D26] (puzzle: Exclusion 5)				30.8	23.2	24.3
GUAUAACAUGUAGGAUAUGCAUGGCAAAGCUAUGCAGAAGGACAUGAGGAUCACCCAUGUAAUAGCGUCUGCGUACAGAUGCAA [Mat - Exclusion NG 1 - Mod of JL - D92] (Eterna round: R96, puzzle: Exclusion NG 1)	165	33.9	31			
AUUAGCGUAGGAUAUUGAAACAUGUACAUGAGGAUCACCCAUGUGAGGUGAGUCUUCGUUUAAGAAGGGCGCAGAA [EX5 #40] (Eterna round: R97, puzzle: Exclusion 5)	213	1030				
AGAAAGCAAGGAUAUACAAGUAAACGACGGAAAGUAGAGAGACAUGAGGAUCACCCAUGUAGAAGGUGCGAGAG [JR_Exclu2_Sub034] (puzzle: Exclusion 2)				24.7	26.1	26.2
UCAACCAGAGGAUAUGCGCAUAGAUCAGACUUUGUUUCUGAACAUGAGGAUCACCCAUGUAGAAGGCUGUAACC [Ex2 #78] (Eterna round: R97, puzzle: Exclusion 2)	28.5	27.1				
AUCGUGUGAGGAUAUCGAUCAUGGAGGUCUAGGUCCAUGCGCGAGAAGGCACAUGAGGAUCACCCAUGUAAUGG [jl-ex4-4.30 ViennaUCT mod] (Eterna round: R97, puzzle: Exclusion 4)	65.3	66.5				
GAAAACUCAGGAUAUGCGUGAGAAAACUUGAGGAUCACCCAAGUGUGGUCCCGAUCUAAAGCAGAAGGGAGCAAAA [Lebidiraus] (Eterna round: R97, puzzle: Exclusion 5)	1770	353				
AAAAGGCAGGGAGGAUAUGCUUACCUGGGUCGUCUUCAGACAUGAGGAUCACCCAUGUAGUCGACGCAGAAGGCCCUCAAAGCC [Mat - Exclusion NG 2 - Mod of JL - D60] (Eterna round: R96, puzzle: Exclusion NG 2)	82.6	54.1	38.9			
ACCUCCGCGAAGGAUAUUAGCACAUUGACAGAUUGAGAAGGUCGCACAUGAGGAUCACCCAUGUGAGGUCAUCC [Eternabot (L1) Solution 82] (Eterna round: R97, puzzle: Exclusion 6)	19.3	21.5				
CAGUGCGUAGGAUAUACGAGGGCCCUUUAUUGUUGAUAAUGACAUGAGGAUCACCCAUGUAGAAGGGCGUCAUG [Eternabot (L1) Solution 45] (Eterna round: R97, puzzle: Exclusion 2)	87.3	24.8				
CGGUGCUGAGGAUAUACAUGAGGAUCACCCAUGUGUUAUUGAUAGAAAACUGGCAGAUGUAGAAGGCGGUACUG [Mat - Exclusion 3 - Mod of JL D99] (puzzle: Exclusion 3)				80.5	25.4	24.9
AGCCUAGCAGGAUAUGCCCGGGAUAACAUGAGGAUCACCCAUGUGACUGAUUGAUGUCCUGCAGAAGGGCUAGGGA [JL-EX5-4.01 ViennaUCT mod] (Eterna round: R97, puzzle: Exclusion 5)	154	25.9				
CCUCCACAUGAGGAUCACCCAUGUCAGGAUAUCGUGUGUUUUUUUUCGGUCGUGCGUGCGAGAAGGGACGUCUU (puzzle: Exclusion 1)					24.8	
AAGAAACAUGAGGAUCACCCAUGUGAGGAUAUGAAUAAGAAAAGAAAAGAAAGAAGAAUCAGAAGGCACAAAGG [salish99-ex1_r3_045] (puzzle: Exclusion 1)				49.5	40.5	37.2
CAAGCUUUGCGAGGAUAUGAUGGCCUAUAUGCCUCAGAAGGCGCAGAAACUUGAGGAUCACCCAAGUGAUGCAAAUACGAAAAU [Mutated MS2 EX1.9] (Eterna round: R96, puzzle: Exclusion NG 1)	78.1	21.8	17.3			
AGUAGUUGUUUCCGUUCUUACAUGAGGAUCACCCAUGUUUCUUGUCGUGCUCGCGUUGCUCGUCAGACUACCAGAUG [salish99_TOv1_r3_060] (puzzle: Sensor v3, turn-off variant 1)				51.1	57.8	75.8
AAAAGCGUCACAGGAUAUUCAGGCGACGCCAAAGAAGAAGGGUGAGGCACAAACAUGAGGAUCACCCAUGUGGUCCUCUCCCGA [Vebiquti] (Eterna round: R96, puzzle: Exclusion NG 1)	19.2	15.6	11			
GCGCGGCGUGUAGGAUAUGCGCGCGGGUCGCGCGCAGAAGGACAUGAGGAUCACCCAUGUGGCGCGCUUGGCGCGCCGCCGCGC [-48, -45 kcal and 14% A] (Eterna round: R96, puzzle: Exclusion NG 1)	16.6	12.9	9.64			
UAAGUUUUGGUAGGAUAUACUUUAAAUUUCUCUAUCCAUACAUGAGGAUCACCCAUGUUUACAUUGUAGAAGGACCACUAUGUU [JR_ExcNG2_Sub056] (Eterna round: R96, puzzle: Exclusion NG 2)			18.7			
GAUCAGUCAGGAUAUCAAUCCGCCUGUGAUACGCAGGCGGCUGAGAAGGGACAUGAGGAUCACCCAUGUAAAGA [jl-ex4-4.22 ViennaUCT mod] (Eterna round: R97, puzzle: Exclusion 4)	191	80.4				
CUUAUGUGAGGAUAUCAGUAGUGAUACGAUAGUAUUACUGCUGAGAAGGCACAUGAGGAUCACCCAUGUUCCUU [Exclusion 4 - Mod Omei Ex4 344 mod v.3] (puzzle: Exclusion 4)					21.9	
